Measured values published in the supplement of paper PMC7877785.
± gives the uncertainty stated by the source.

Assay: self-splicing fitness, log relative to wild type (ln ratio); higher = more splicing; Tetrahymena group I intron in knt gene, E. coli kanamycin selection, DiMSum; sequences stand for … in CUCUCU…GGAGGGAAAAGUUAUCAGGCAUGCACCUGGUAGCUAGUCUUUAAACCAAUAGAUUGCAUCGGUUUAAAAGGCAAGACCGUCAAAUUGCGGGAAAGGGGUCAACAGCCGUUCAGUACCAAGUCUCAGGGGAAACUUUGAGAUGGCCUUGCAAAGGGUAUGGUAAUAAGCUGACGGACAUGGUCCUAACCACGCAGCCAAGUCCUAAGUCAACAGAUCUUCUGUUGAUAUGGAUGCAGUUCACAGACUAAAUGUCGGUCGGGGAAGAUGUAUUCUUCUCAUAAGAUAUAGUCGGACCUCUCCUUAAUGGGAGCUAGCGGAUGAAGUGAUGCAACACUGGAGCCGCUGGGAACUAAUUUGUAUGCGAAAGUAUAUUGAUUAGUUUUGGAGUACUCGUGGUCG
Procedure, shortened: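 Six replicate transformations of E. coli BL21(DE3) with a pET-22b(+) library were grown overnight at 37°C or 30°C. The library randomised all eight P1ex-region intron nucleotides, the intron lying in the knt kanamycin-resistance gene, and plates were LB agar with or without 25 μg/mL kanamycin plus 100 μg/mL carbenicillin, 50 μM IPTG and 0.2% rhamnose. Pooled colonies were amplicon-sequenced on an Illumina HiSeq 2500, and fitness is the DiMSum error-weighted combination of wild-type-normalised replicate fold changes, kanamycin versus none.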

| Sequence | self-splicing fitness (ln) (30 °C) | self-splicing fitness (ln) (37 °C) |
| --- | --- | --- |
| CAGGAGCAAUAUUACGGAUU | -3.18 ± 0.23 | -2.52 ± 0.37 |
| UUCCAGCAAUAUUACGGUUA | 0.496 ± 0.085 | 0.423 ± 0.087 |
| UUCAAGCAAUAUUACGAGGA | -2.22 ± 0.14 | -1.43 ± 0.13 |
| UAAGAGCAAUAUUACGACGU | -2.32 ± 0.33 | -1.88 ± 0.39 |
| AAUCAGCAAUAUUACGAGCG | -0.582 ± 0.063 | -0.11 ± 0.079 |
| CGCGAGCAAUAUUACGUGUA | -3.72 ± 0.18 | -1.48 ± 0.11 |
| CCAAAGCAAUAUUACGUGUG | -1.33 ± 0.055 | -0.624 ± 0.066 |
| UAGAAGCAAUAUUACGGUAC | -3.25 ± 0.37 |  |
| UUAGAGCAAUAUUACGCAGU | -3.64 ± 0.32 | -3.17 ± 0.47 |
| GUACAGCAAUAUUACGCACA | -1.52 ± 0.11 | -0.471 ± 0.11 |
| CAAUAGCAAUAUUACGAUUC | -3.4 ± 0.14 | -1.24 ± 0.14 |
| ACCCAGCAAUAUUACGCAAG | -2.81 ± 0.11 | -1.14 ± 0.11 |
| AUGAAGCAAUAUUACGUUUC | -4.39 ± 0.2 | -3.03 ± 0.15 |
| AGAUAGCAAUAUUACGAUUU | -0.348 ± 0.084 | 0.527 ± 0.11 |
| UGCAAGCAAUAUUACGGCCG | -0.266 ± 0.075 | 0.134 ± 0.099 |
| UUAGAGCAAUAUUACGACUA | -1.13 ± 0.31 | -0.676 ± 0.32 |
| AUCAAGCAAUAUUACGCUAU | -3.18 ± 0.16 | -0.907 ± 0.12 |
| UCGCAGCAAUAUUACGGCGC | -1.87 ± 0.12 | -0.971 ± 0.17 |
| GCCGAGCAAUAUUACGGGAC | -0.849 ± 0.11 | -1.12 ± 0.15 |
| AUCGAGCAAUAUUACGACGU | -0.331 ± 0.096 | 0.0461 ± 0.12 |
| AACAAGCAAUAUUACGACUG | -0.961 ± 0.099 | -0.786 ± 0.11 |
| AUUGAGCAAUAUUACGCUAA | -2.5 ± 0.16 | -1.54 ± 0.16 |
| CGAUAGCAAUAUUACGAAGG | -0.374 ± 0.11 | -0.55 ± 0.17 |
| UACCAGCAAUAUUACGAGAU | -3.69 ± 0.21 | -3.25 ± 0.13 |
| AAGUAGCAAUAUUACGUCGG | -2.97 ± 0.25 | -2.09 ± 0.26 |
| CAAUAGCAAUAUUACGUUGA | -2.59 ± 0.15 | -3.59 ± 0.22 |

| Sequence | self-splicing fitness (ln) (30 °C) | self-splicing fitness (ln) (37 °C) |
| --- | --- | --- |
| UCUGAGCAAUAUUACGAUAA |  | -2.05 ± 0.43 |
| GGGAAGCAAUAUUACGCGUA | -0.73 ± 0.14 | -0.267 ± 0.14 |
| UUCCAGCAAUAUUACGUCAA | -1.3 ± 0.1 | -0.233 ± 0.12 |
| CCCUAGCAAUAUUACGGAGA | -4.85 ± 0.46 | -2.68 ± 0.2 |
| CCGGAGCAAUAUUACGCAAC | -1.66 ± 0.4 | -2.92 ± 0.47 |
| AUAUAGCAAUAUUACGUAUC | -3.41 ± 0.3 | -1.92 ± 0.35 |
| AAACAGCAAUAUUACGUAGC | -4.24 ± 0.16 | -2.98 ± 0.18 |
| UAAAAGCAAUAUUACGAUCA | -0.503 ± 0.08 | 0.0071 ± 0.11 |
| AGAGAGCAAUAUUACGACUU | -1.7 ± 0.15 | -0.522 ± 0.15 |
| AAUGAGCAAUAUUACGAGAU | -3.92 ± 0.21 | -2.23 ± 0.13 |
| GCAAAGCAAUAUUACGCCAC | -3.15 ± 0.27 | -1.93 ± 0.19 |
| AUACAGCAAUAUUACGGGGU | -3.29 ± 0.13 | -1.69 ± 0.093 |
| GCCAAGCAAUAUUACGAACA | -2.36 ± 0.16 | -2.2 ± 0.17 |
| CGGCAGCAAUAUUACGCUGG | -3.32 ± 0.16 | -2.23 ± 0.21 |
| UGCAAGCAAUAUUACGAUCG | -0.2 ± 0.07 | 0.647 ± 0.093 |
| AUUCAGCAAUAUUACGCCAG | -3.08 ± 0.22 | -0.928 ± 0.22 |
| CCUCAGCAAUAUUACGAGGC |  | -2.19 ± 0.31 |
| AUGCAGCAAUAUUACGUGGA | -3.1 ± 0.29 | -1.73 ± 0.18 |
| GCGUAGCAAUAUUACGGACC | -2.2 ± 0.24 | -2.35 ± 0.35 |
| UAGCAGCAAUAUUACGAUAG | -1.78 ± 0.073 | -1.46 ± 0.1 |
| AAUCAGCAAUAUUACGUUCG | -1.51 ± 0.07 | -0.466 ± 0.089 |
| UUUCAGCAAUAUUACGGUGG | -1.94 ± 0.067 | -0.673 ± 0.075 |
| CUAGAGCAAUAUUACGCCCA | -3.13 ± 0.33 |  |
| UAACAGCAAUAUUACGUGCC | -3.5 ± 0.22 | -1.9 ± 0.15 |
| GUGGAGCAAUAUUACGUUGA | -3.13 ± 0.47 | -1.5 ± 0.25 |
| GCGAAGCAAUAUUACGGAUC | -0.303 ± 0.071 | -0.659 ± 0.094 |

| Sequence | self-splicing fitness (ln) (30 °C) | self-splicing fitness (ln) (37 °C) |
| --- | --- | --- |
| AUGCAGCAAUAUUACGUUGA | -2.97 ± 0.14 | -2.41 ± 0.12 |
| GGUCAGCAAUAUUACGUCGU | 0.302 ± 0.08 | 0.488 ± 0.082 |
| UUACAGCAAUAUUACGUUCC | -3.34 ± 0.26 | -2.22 ± 0.46 |
| GCCCAGCAAUAUUACGGUAG | -4.78 ± 0.23 | -2.51 ± 0.19 |
| UCUAAGCAAUAUUACGUGAC | -2.88 ± 0.23 | -2.95 ± 0.28 |
| CUUCAGCAAUAUUACGUUGA | -3.08 ± 0.25 | -2.85 ± 0.24 |
| UAUUAGCAAUAUUACGGUGU | -3.01 ± 0.25 | -2.7 ± 0.3 |
| UGGAAGCAAUAUUACGUUCU | -3.42 ± 0.25 | -1.31 ± 0.17 |
| AGUAAGCAAUAUUACGGCCG | -0.888 ± 0.11 | -0.63 ± 0.18 |
| GGCCAGCAAUAUUACGAUUC | -0.666 ± 0.067 | -0.139 ± 0.099 |
| GGCAAGCAAUAUUACGCAUC | -0.644 ± 0.078 | -0.532 ± 0.1 |
| AGUCAGCAAUAUUACGUCGC | -1.65 ± 0.13 | -1.14 ± 0.19 |
| UUUGAGCAAUAUUACGUGAG | -1.35 ± 0.11 | 0.29 ± 0.14 |
| GCAAAGCAAUAUUACGGACC | -0.898 ± 0.092 | 0.746 ± 0.13 |
| CCUAAGCAAUAUUACGCUGU | -3.8 ± 0.33 | -2.61 ± 0.33 |
| UCUAAGCAAUAUUACGAAUG | -1.16 ± 0.095 | -0.995 ± 0.12 |
| GAAGAGCAAUAUUACGUCGG | -3.36 ± 0.3 | -2.37 ± 0.3 |
| UGGCAGCAAUAUUACGGUCU | -0.537 ± 0.066 | 0.29 ± 0.087 |
| ACCCAGCAAUAUUACGACCU | -0.748 ± 0.062 | -0.326 ± 0.074 |
| UGAGAGCAAUAUUACGGGUC |  | -1.33 ± 0.45 |
| GAAUAGCAAUAUUACGGAAG | -4.14 ± 0.39 | -2.1 ± 0.25 |
| GCGCAGCAAUAUUACGAUCG | -1.61 ± 0.11 | 0.00803 ± 0.12 |
| UAACAGCAAUAUUACGUUCU | -1.17 ± 0.08 | -0.668 ± 0.079 |
| ACAAAGCAAUAUUACGGAUC | -2.77 ± 0.12 | -0.403 ± 0.11 |
